Data reported in US20200239555A1 (STATEN BIOTECHNOLOGY B V, published 2020).
Residue numbers refer to the chain shown, from its start.

B1: mAb5 (antibody, IgG1, V domains shown)
VH: QLVESGGGLVQPGGSLRLSCAASGFTFGTYSMRWVRQAPGKGLEWVSSIHTEGGGTAYRDSVKGRFTISRDNAKNTLYLQMNSLRAEDTAVYYCVIAGYSDWGQGTLVTVSS
VL: DIVMTQSPLSLPVTPGESASISCKTSQGLVHSDGKTYFYWFLQKPGQSPQQLIYQVSNRASGVPDRFTGSGSGTDFTLKISRVKAEDAGVYYCAHGTYYPHTFGQGTRLEIK
notes: Produced as full length IgG1 (kappa) in ExpiCHO-S cells; also called humanized anti-ApoC3 antibody mAb5
B2: mAb1 (antibody, IgG1, V domains shown)
VH: B1 VH with A38V, V91I
VL: B1 VL
notes: Produced as full length IgG1 (kappa) in ExpiCHO-S cells; also called humanized anti-ApoC3 antibody mAb1
B3: mAb2 (antibody, IgG1, V domains shown)
VH: B1 VH with A38V, V91I
VL: B1 VL with T68S
notes: Produced as full length IgG1 (kappa) in ExpiCHO-S cells; also called humanized anti-ApoC3 antibody mAb2
B4: mAb3 (antibody, IgG1, V domains shown)
VH: B1 VH with V91I
VL: B1 VL
notes: Produced as full length IgG1 (kappa) in ExpiCHO-S cells; also called humanized anti-ApoC3 antibody mAb3
B5: mAb4 (antibody, IgG1, V domains shown)
VH: B1 VH with V91I
VL: B1 VL with T68S
notes: Produced as full length IgG1 (kappa) in ExpiCHO-S cells; also called humanized anti-ApoC3 antibody mAb4
B6: mAb6 (antibody, IgG1, V domains shown)
VH: B1 VH
VL: B1 VL with T68S
notes: Produced as full length IgG1 (kappa) in ExpiCHO-S cells; also called humanized anti-ApoC3 antibody mAb6
B7: mAb7 (antibody, V domains shown)
VH: B1 VH with G28S, E52G, S83N, V91I
VL: B1 VL with T68S
notes: Produced as full length IgG1 (kappa) in ExpiCHO-S cells; also called humanized anti-ApoC3 antibody mAb7
B8: mAb8 (antibody, IgG1, V domains shown)
VH: B1 VH with G28S, E52D, G53A, S83N
VL: B1 VL with P12S, T14V, S18P, T68S, K84E, A88V
notes: Produced as full length IgG1 (kappa) in ExpiCHO-S cells; also called humanized anti-ApoC3 antibody mAb8
B9: mAb9 (antibody, IgG1, V domains shown)
VH: B1 VH with G28S, E52D, G53A, S83N
VL: B1 VL with P12S, S18P, T68S, K84E, A88V
notes: Produced as full length IgG1 (kappa) in ExpiCHO-S cells; also called humanized anti-ApoC3 antibody mAb9
B10: mAb15 (antibody, IgG1, V domains shown)
VH: B1 VH with G53A, S83N, R85K, V91I, L107Q
VL: B1 VL with D33G, K84E, H95Q, Q105S
notes: Produced as full length IgG1 (kappa) in ExpiCHO-S cells; also called humanized anti-ApoC3 antibody mAb15
B11: mAb16 (antibody, IgG1, V domains shown)
VH: B1 VH with G53A, S83N, R85K, V91I, L107Q
VL: B1 VL with D33G, K84E, Q105S
notes: Produced as full length IgG1 (kappa) in ExpiCHO-S cells; also called humanized anti-ApoC3 antibody mAb16
B12: mAb18 (antibody, IgG1, V domains shown)
VH: B1 VH with G28S, G53A, S83N
VL: B1 VL with S18P, D33G, K84E
notes: Produced as full length IgG1 (kappa) in ExpiCHO-S cells; also called humanized anti-ApoC3 antibody mAb18
B13: mAb20 (antibody, IgG1, V domains shown)
VH: B1 VH with G28S, E52D, G53A, S83N, A86P
VL: B1 VL with L9G, P12S, S18P, D33G, R82G, K84E
notes: Produced as full length IgG1 (kappa) in ExpiCHO-S cells; also called humanized anti-ApoC3 antibody mAb20

Legend:
native human ApoC3 [1] = target: T1, native human ApoC3 (human, UniProt P02656 21-99); assay: SPR, ApoC3 over captured IgG1, pH 7.4
T1 construct: also called nhuApoC3; native huApoC3
Description: (§1) An inverted SPR assay was designed in which a test antibody was captured on an SPR chip, human ApoC3 protein was injected, and binding of ApoC3 to the antibody was measured. […] The immobilization was performed in accordance with the method provided by Biacore/GE using the NHS/EDC kit (Biacore AB, Cat.nr. BR-1000-50): after activation of the chip, a solution of 30 μg/ml of anti-human Fcγ antibody in 10 mM acetate buffer with pH of 5.0 was prepared and injected until the surface density reached approximately 10000 RU. The analytical cycle comprised the following steps:
(§2) The resulting sensorgrams were analyzed using the BIAevaluation 4.1 software using Langmuir 1:1 binding model to derive binding kinetics. Data was zero adjusted, the reference cell sensorgrams were subtracted and the no analyte blank assay was used for double referencing the sensorgrams corresponding to the analyte injections. The dissociation and association phase sensorgrams were fitted separately for the 4 different concentration curves. Sensorgrams were excluded from the fitting if maximum RU values reached were below the detection limit of the equipment (<5 RU), Biacore 3000 (Biacore AB).

native human ApoC3 [2] = target: T1, native human ApoC3; assay: SPR, ApoC3 over captured IgG1, pH 5.5
Description: as §1, §2

native human ApoC3 [3] = target: T1, native human ApoC3; assay: SPR, ApoC3 over captured IgG1
Description: as §1, §2

[4] = target: T2, biotinylated native human ApoC3 (human, UniProt P02656 21-99, biotinylated (site not stated)); assay: SPR, IgG1 over biotinylated ApoC3 on SA chip
T2 construct: also called biotinylated human ApoC3
Description: (§3) Biotinylated native human ApoC3 was captured on a streptavidin coated SPR chip (GE Healthcare, cat. nr. BR100032) at pH 7.4, in accordance with the method provided by Biacore, by injection of 20 μl 10 μg/ml biotinylated native human ApoC3 reaching the surface density of approximately 500 RU. 60 μL of test antibody in 1-50 nM range diluted in HBS-EP buffer (GE, cat # BR-1008-26; 0.010 M HEPES, 0.150M NaCl, 3 mM EDTA, 0.05% (v/v) surfactant P20, pH 7.4) was injected and passed through the flow cells at a flow rate of 30 μl/min, followed by an off-rate wash at pH7.4 for 5 min. After the dissociation, the flow cell surfaces were regenerated by injecting 10 μl of 10 mM NaOH/1 M NaCl and 10 μl of 10 mM glycine at pH1.5. The assay was repeated at pH5.5 using the same general protocol, where the running and sample dilution buffer was replaced by a HBS-EP buffer supplemented with citrate buffer to 10 mM final concentration and pH adjusted to 5.5.
(§4) The resulting sensorgrams were analyzed using the BIAevaluation 4.1 software using Langmuir 1:1 binding model to derive binding kinetics. Data was zero adjusted and the reference cell sensorgrams were subtracted. Sensorgrams were double referenced to no-analyte blank assay. Fitted parameters were considered not applicable if off-rate values were below the equipment's detection limit of kd: 1×10⁻⁶ 1/s.

[5] = target: T2, biotinylated native human ApoC3; assay: SPR, IgG1 over biotinylated ApoC3 on SA chip, pH 5.5
Description: as §3, §4

[6] = target: T2, biotinylated native human ApoC3; assay: SPR, IgG1 over biotinylated ApoC3 on SA chip, pH 7.4
Description: as §3, §4

T2 sequence (P02656 21-99): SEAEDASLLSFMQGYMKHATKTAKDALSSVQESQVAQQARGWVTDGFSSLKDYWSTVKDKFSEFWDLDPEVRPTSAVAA
T1 sequence (P02656 21-99): as above

Binder | Ka (native human ApoC3 [1]) [M⁻¹] | koff (native human ApoC3 [1]) [s⁻¹] | kon (native human ApoC3 [1]) [M⁻¹ s⁻¹] | Ka (native human ApoC3 [2]) [M⁻¹] | koff (native human ApoC3 [2]) [s⁻¹] | kon (native human ApoC3 [2]) [M⁻¹ s⁻¹] | KD (nM) pH5.5/pH7.4 (native human ApoC3 [3]) | KD pH5.5/KD pH7.4 [4] | Ka [5] [M⁻¹] | Kd [5] [nM] | koff [5] [s⁻¹] | kon [5] [M⁻¹ s⁻¹] | Ka [6] [M⁻¹] | Kd [6] [nM] | koff [6] [s⁻¹] | kon [6] [M⁻¹ s⁻¹] | Kd (native human ApoC3 [1]) [nM] | Kd (native human ApoC3 [2]) [nM]
B1 | 5.51e+06 | 0.00637 | 35100 | 2.45e+06 | 0.0376 | 92000 | 2.25 | 2.33 | 2.9e+09 | 0.35 | 0.000145 | 419000 | 6.76e+09 | 0.15 | 3.51e-05 | 237000 |  | 
B2 | 1.35e+07 | 0.00426 | 57600 | 3.95e+06 | 0.0257 | 101000 | 3.42 | 5.22 | 4.23e+09 | 0.24 | 0.000104 | 440000 | 2.2e+10 | 0.05 | 1.18e-05 | 261000 | 74 | 
B3 | 9.69e+06 | 0.0046 | 44500 | 3.44e+06 | 0.0281 | 96600 | 2.82 | 5.13 | 3.54e+09 | 0.28 | 0.000123 | 435000 | 1.81e+10 | 0.06 | 1.35e-05 | 245000 |  | 
B4 | 5.75e+06 | 0.00582 | 33400 | 3.09e+06 | 0.033 | 102000 | 1.86 | 3.19 | 2.85e+09 | 0.35 | 0.000127 | 363000 | 9.11e+09 |  | 2.33e-05 | 212000 |  | 
B5 | 8.06e+06 | 0.00565 | 45500 | 2.32e+06 | 0.0359 | 83100 | 3.48 |  | 2.67e+09 | 0.37 | 0.000156 | 416000 | 2.15e+11 |  | 1.13e-06 | 243000 |  | 
B6 | 6.08e+06 | 0.00672 | 40900 | 1.16e+06 | 0.0802 | 93100 | 5.22 | 5.79 | 2.88e+09 | 0.35 | 0.000148 | 425000 | 1.67e+10 | 0.06 | 1.33e-05 | 222000 |  | 
B7 | 4.05e+06 | 0.012 | 48500 | 1.71e+06 | 0.0646 | 111000 | 2.36 | 52.7 | 2.05e+08 |  | 0.00321 | 656000 | 1.08e+10 | 0.09 | 3.37e-05 | 364000 |  | 
B8 | 4.15e+06 | 0.00772 | 32100 | 4.13e+06 | 0.0205 | 84600 | 1 | 7.34 | 1.34e+09 | 0.75 | 0.000367 | 490000 | 9.83e+09 | 0.1 | 2.41e-05 | 237000 |  | 
B9 | 4.31e+06 | 0.00669 | 28800 | 1.85e+06 | 0.0467 | 86300 | 2.33 | 5.09 | 1.32e+09 | 0.76 | 0.000369 | 486000 | 6.71e+09 | 0.15 | 3.32e-05 | 223000 |  | 
B10 | 2.88e+07 | 0.00378 | 109000 | 1.16e+07 | 0.0116 | 134000 | 2.48 |  | 2.83e+09 | 0.35 | 0.000249 | 705000 | 1.86e+11 |  | 2.77e-06 | 516000 | 35 | 86
B11 | 1.68e+06 | 0.0466 | 78100 |  |  |  |  | 10.8 | 1.34e+08 |  | 0.0121 | 1.63e+06 | 1.46e+09 | 0.69 | 0.000375 | 546000 |  | 
B12 | 1.97e+06 | 0.0539 | 106000 |  |  |  |  | 6.48 | 1.16e+08 |  | 0.0155 | 1.79e+06 | 7.49e+08 |  | 0.000838 | 628000 |  | 
B13 | 747000 | 0.0737 | 55100 |  |  |  |  | 16.1 | 1.06e+08 |  | 0.0214 | 2.27e+06 | 1.71e+09 | 0.59 | 0.000487 | 831000 |  | 
